Patent US20220064248A1, “PHARMACEUTICAL COMPOSITION INCLUDING INSULIN AND GLUCAGON” (HANMl PHARM. CO., LTD, priority 2018, published 2022)
Bridges are numbered along the chain shown (N, C = ends). Where no end group is shown, it is not given here. [ ]: non-standard residue; d: D form. Aib = CC(C)(N)C(=O)O

Molecular target: glucagon receptors (Homo sapiens, UniProt P47871)
Assay: In vitro activity of glucagon analogs relative to native glucagon
Assay type: cell-based
Conditions: relative to native glucagon (SEQ ID NO: 1)
Description: The glucagon analogs were synthesized with reference to Korean Patent Publication Nos. 10-2016-0082482, 10-2017-003466, and 10-2018-0002544, and pl and in vitro activity thereof were measured.

Chain of glucagon receptors (P47871 26-477): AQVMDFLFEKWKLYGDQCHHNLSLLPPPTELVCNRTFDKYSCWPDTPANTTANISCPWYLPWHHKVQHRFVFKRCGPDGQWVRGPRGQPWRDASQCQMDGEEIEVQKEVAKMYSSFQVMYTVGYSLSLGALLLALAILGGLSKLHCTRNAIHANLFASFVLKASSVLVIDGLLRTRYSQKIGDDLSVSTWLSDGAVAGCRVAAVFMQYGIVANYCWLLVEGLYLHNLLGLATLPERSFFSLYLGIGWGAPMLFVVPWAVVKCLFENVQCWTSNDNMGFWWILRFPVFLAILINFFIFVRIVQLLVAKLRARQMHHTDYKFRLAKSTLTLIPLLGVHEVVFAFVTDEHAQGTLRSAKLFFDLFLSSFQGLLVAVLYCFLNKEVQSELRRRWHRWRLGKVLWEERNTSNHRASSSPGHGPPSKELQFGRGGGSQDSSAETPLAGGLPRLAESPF

Row | In vitro activity (relative activity to SEQ ID NO: 1, %) [%] | Substance
1 | 0.7 | -SQGTFTSDYSKYLDECRAKEFVQWLMNT (lactam 15-19; also: name begins with '-' (N-terminal residue not shown)) [SEQ ID NO: 32]
2 | 0.6 | HSQGTFTSDYSKYLDCDRAQDFVQWLMNT (glucagon derivative) [SEQ ID NO: 2]
3 | 6.1 | HSQGTFTSDYSKYLDCERAQDFVQWLMNT (glucagon derivative) [SEQ ID NO: 3]
4 | <0.1 | HSQGTFTSDYSKYLDSCDAQDFVQWLMNT (glucagon derivative) [SEQ ID NO: 4]
5 | <0.1 | HSQGTFTSDYSKYLDSCEADDFVQWLMNT (glucagon derivative) [SEQ ID NO: 6]
6 | 0.3 | HSQGTFTSDYSKYLDSCEAQDFVQWLMNT (glucagon derivative) [SEQ ID NO: 5]
7 | 0.3 | WXQGTFTSDYSKCLDERRAKDFVQWLMNT (W[Aib]QGTFTSDYSKCLDERRAKDFVQWLMNT; lactam 16-20) [SEQ ID NO: 30]
8 | 0.2 | WXQGTFTSDYSKYCDERRAKEFVQWLMNT (W[Aib]QGTFTSDYSKYCDERRAKEFVQWLMNT; lactam 16-20) [SEQ ID NO: 34]
9 | 1.0 | WXQGTFTSDYSKYLDECRAKDFVQWLMNT (W[Aib]QGTFTSDYSKYLDECRAKDFVQWLMNT; lactam 16-20) [SEQ ID NO: 26]
10 | <0.1 | WXQGTFVSDYSKYLDECRAKDFVQWLMNT (W[Aib]QGTFVSDYSKYLDECRAKDFVQWLMNT; lactam 16-20) [SEQ ID NO: 28]
11 | <0.1 | YSQGTFTSDYSKYLDSCEADDFVQWLMNT (glucagon derivative) [SEQ ID NO: 7]
12 | 45.2 | YXQGTFCSDYSKYLDERRAKDFVQWLMNT (Y[Aib]QGTFCSDYSKYLDERRAKDFVQWLMNT; lactam 16-20) [SEQ ID NO: 41]
13 | 167.3 | YXQGTFCSDYSKYLDERRAKEFVQWLMNT (Y[Aib]QGTFCSDYSKYLDERRAKEFVQWLMNT; lactam 16-20) [SEQ ID NO: 38]
14 | 37.9 | YXQGTFCSDYSKYLDSRRAQDFVQWLMNT (Y[Aib]QGTFCSDYSKYLDSRRAQDFVQWLMNT) [SEQ ID NO: 42]
15 | 9.9 | YXQGTFTSDCSKYLDERRAKEFVQWLMNT (Y[Aib]QGTFTSDCSKYLDERRAKEFVQWLMNT; lactam 16-20) [SEQ ID NO: 36]
16 | 1.6 | YXQGTFTSDCSKYLDSRRAQDFVQWLMNT (Y[Aib]QGTFTSDCSKYLDSRRAQDFVQWLMNT) [SEQ ID NO: 43]
17 | 5.2 | YXQGTFTSDYSCYLDSRRAQDFVQWLMNT (Y[Aib]QGTFTSDYSCYLDSRRAQDFVQWLMNT) [SEQ ID NO: 13]
18 | 58.0 | YXQGTFTSDYSKCLDEKRAKEFVQWLMNT (Y[Aib]QGTFTSDYSKCLDEKRAKEFVQWLMNT; lactam 16-20) [SEQ ID NO: 24]
19 | 61.3 | YXQGTFTSDYSKCLDERRAKDFVQWLMNT (Y[Aib]QGTFTSDYSKCLDERRAKDFVQWLMNT; lactam 16-20) [SEQ ID NO: 29]
20 | 76.8 | YXQGTFTSDYSKYCDEKRAKEFVQWLMNT (Y[Aib]QGTFTSDYSKYCDEKRAKEFVQWLMNT; lactam 16-20) [SEQ ID NO: 23]
21 | 17.7 | YXQGTFTSDYSKYCDERRAKEFVQWLMNT (Y[Aib]QGTFTSDYSKYCDERRAKEFVQWLMNT; lactam 16-20) [SEQ ID NO: 35]
22 | 12.1 | YXQGTFTSDYSKYLCEKRAKEFVQWLMNT (Y[Aib]QGTFTSDYSKYLCEKRAKEFVQWLMNT; lactam 16-20) [SEQ ID NO: 19]

Row | In vitro activity (relative activity to SEQ ID NO: 1, %) [%] | Substance
23 | 1.1 | YXQGTFTSDYSKYLCEKRAQDFVVWLMNT (Y[Aib]QGTFTSDYSKYLCEKRAQDFVVWLMNT) [SEQ ID NO: 15]
24 | 6.3 | YXQGTFTSDYSKYLDCKRAKEFVQWLMNT (Y[Aib]QGTFTSDYSKYLDCKRAKEFVQWLMNT; lactam 17-21) [SEQ ID NO: 31]
25 | 18.1 | YXQGTFTSDYSKYLDCKRAKEFVQWLMNT [SEQ ID NO: 14] (Y[Aib]QGTFTSDYSKYLDCKRAKEFVQWLMNT; not fully specified (bridges); also: lactam ring between underlined residues, places not shown)
26 | 4.2 | YXQGTFTSDYSKYLDCRRAQVFVQWLMRT (Y[Aib]QGTFTSDYSKYLDCRRAQVFVQWLMRT) [SEQ ID NO: 16]
27 | 23.2 | YXQGTFTSDYSKYLDCVRAQDFVQWLMRT (Y[Aib]QGTFTSDYSKYLDCVRAQDFVQWLMRT) [SEQ ID NO: 17]
28 | 299.7 | YXQGTFTSDYSKYLDECRAKEFVQWLMNT (Y[Aib]QGTFTSDYSKYLDECRAKEFVQWLMNT; lactam 16-20) [SEQ ID NO: 20]
29 | 4.6 | YXQGTFTSDYSKYLDEKCAKEFVQWLMNT [SEQ ID NO: 11] (Y[Aib]QGTFTSDYSKYLDEKCAKEFVQWLMNT; not fully specified (bridges); also: lactam ring between underlined residues, places not shown)
30 | 57.8 | YXQGTFTSDYSKYLDEKCAKEFVQWLMNT [SEQ ID NO: 21] (Y[Aib]QGTFTSDYSKYLDEKCAKEFVQWLMNT; lactam 16-20)
31 | 46.9 | YXQGTFTSDYSKYLDEKRAKCFVQWLMNT (Y[Aib]QGTFTSDYSKYLDEKRAKCFVQWLMNT; lactam 16-20) [SEQ ID NO: 25]
32 | 56.3 | YXQGTFTSDYSKYLDEKRAKEFVQWLMNTC (Y[Aib]QGTFTSDYSKYLDEKRAKEFVQWLMNTC; lactam 16-20) [SEQ ID NO: 12]
33 | 147.8 | YXQGTFTSDYSKYLDEKRCKEFVQWLMNT (Y[Aib]QGTFTSDYSKYLDEKRCKEFVQWLMNT; lactam 16-20) [SEQ ID NO: 22]
34 | 225.5 | YXQGTFTSDYSKYLDERRAKEFVQWLMNTC (Y[Aib]QGTFTSDYSKYLDERRAKEFVQWLMNTC; lactam 16-20) [SEQ ID NO: 37]
35 | <0.1 | YXQGTFTSDYSKYLDSCDADDFVVWLINT (Y[Aib]QGTFTSDYSKYLDSCDADDFVVWLINT) [SEQ ID NO: 10]
36 | <0.1 | YXQGTFTSDYSKYLDSCDAQDFVQWLINT (Y[Aib]QGTFTSDYSKYLDSCDAQDFVQWLINT) [SEQ ID NO: 8]
37 | <0.1 | YXQGTFTSDYSKYLDSCDAQDFVVWLINT (Y[Aib]QGTFTSDYSKYLDSCDAQDFVVWLINT) [SEQ ID NO: 9]
38 | <0.1 | YXQGTFTSDYSKYLDSRRACDFRLWLMNT (Y[Aib]QGTFTSDYSKYLDSRRACDFRLWLMNT) [SEQ ID NO: 18]
39 | 108.2 | YXQGTFTSDYSKYLDSRRAQDFVQWLMNT (X non-natural residue; glucagon derivative; (2) Xaa is aminoisobutyric acid (Aib)) [SEQ ID NO: 33]
40 | 75.4 | YXQGTFTSDYSKYLDSRRAQDFVQWLMNTC (glucagon derivative; (2) Xaa is aminoisobutyric acid (Aib)) [SEQ ID NO: 44]
41 | 3.7 | YXQGTFVSDCSKYLDERRAKDFVQWLMNT (Y[Aib]QGTFVSDCSKYLDERRAKDFVQWLMNT; lactam 16-20) [SEQ ID NO: 39]
42 | 93.6 | YXQGTFVSDYSKYLDECRAKDFVQWLMNT (Y[Aib]QGTFVSDYSKYLDECRAKDFVQWLMNT; lactam 16-20) [SEQ ID NO: 27]
43 | 40.8 | YXQGTFVSDYSKYLDERRAKDFVQWLMNTC (Y[Aib]QGTFVSDYSKYLDERRAKDFVQWLMNTC; lactam 16-20) [SEQ ID NO: 40]
